Experimental data reported in patent publication US20230279137A1 (EVOTEC INTERNATIONAL, published 2023).

T1: human IFNγ receptor on HEK-Blue IFN-γ cells (human, UniProt P15260 18-489; P38484 22-337)
T1 sequence (looked up) 1: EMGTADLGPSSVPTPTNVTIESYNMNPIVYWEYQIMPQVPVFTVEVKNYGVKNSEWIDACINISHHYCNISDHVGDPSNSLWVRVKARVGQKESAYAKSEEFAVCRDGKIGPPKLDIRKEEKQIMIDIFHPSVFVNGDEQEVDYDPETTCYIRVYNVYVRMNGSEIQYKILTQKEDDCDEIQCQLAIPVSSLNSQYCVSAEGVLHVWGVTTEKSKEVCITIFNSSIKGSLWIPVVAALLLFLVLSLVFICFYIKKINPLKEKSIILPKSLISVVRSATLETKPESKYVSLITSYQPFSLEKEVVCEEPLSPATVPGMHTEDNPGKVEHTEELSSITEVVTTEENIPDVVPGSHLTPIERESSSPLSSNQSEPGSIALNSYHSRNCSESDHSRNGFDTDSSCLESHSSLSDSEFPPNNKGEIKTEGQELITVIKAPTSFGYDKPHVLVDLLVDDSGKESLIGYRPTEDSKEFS
T1 sequence (looked up) 2: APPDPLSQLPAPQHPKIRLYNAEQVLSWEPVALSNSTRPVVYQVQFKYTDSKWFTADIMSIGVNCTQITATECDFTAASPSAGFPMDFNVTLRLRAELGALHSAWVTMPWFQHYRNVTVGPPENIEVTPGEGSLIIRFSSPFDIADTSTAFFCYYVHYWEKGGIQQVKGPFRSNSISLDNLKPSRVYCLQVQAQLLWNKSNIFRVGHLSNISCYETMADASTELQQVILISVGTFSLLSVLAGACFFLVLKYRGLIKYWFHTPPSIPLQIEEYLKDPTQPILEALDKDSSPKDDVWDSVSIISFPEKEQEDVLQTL

T2: human type I IFN receptor on HEK-Blue IFN-α/β cells (human, UniProt P17181 28-557; P48551 27-515)
T2 sequence (looked up) 1: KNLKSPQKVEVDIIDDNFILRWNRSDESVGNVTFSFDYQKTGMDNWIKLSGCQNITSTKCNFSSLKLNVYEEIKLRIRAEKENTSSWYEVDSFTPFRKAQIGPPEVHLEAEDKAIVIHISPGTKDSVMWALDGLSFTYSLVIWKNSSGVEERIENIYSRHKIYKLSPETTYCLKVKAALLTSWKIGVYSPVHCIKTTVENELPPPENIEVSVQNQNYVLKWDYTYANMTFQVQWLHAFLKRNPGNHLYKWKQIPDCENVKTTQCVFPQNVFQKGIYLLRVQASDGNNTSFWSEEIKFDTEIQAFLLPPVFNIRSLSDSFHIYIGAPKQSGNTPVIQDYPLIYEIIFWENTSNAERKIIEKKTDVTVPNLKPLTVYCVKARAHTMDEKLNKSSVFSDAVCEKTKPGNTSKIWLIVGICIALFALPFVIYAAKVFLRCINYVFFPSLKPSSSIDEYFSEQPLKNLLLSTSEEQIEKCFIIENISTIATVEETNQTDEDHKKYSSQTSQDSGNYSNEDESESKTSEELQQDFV
T2 sequence (looked up) 2: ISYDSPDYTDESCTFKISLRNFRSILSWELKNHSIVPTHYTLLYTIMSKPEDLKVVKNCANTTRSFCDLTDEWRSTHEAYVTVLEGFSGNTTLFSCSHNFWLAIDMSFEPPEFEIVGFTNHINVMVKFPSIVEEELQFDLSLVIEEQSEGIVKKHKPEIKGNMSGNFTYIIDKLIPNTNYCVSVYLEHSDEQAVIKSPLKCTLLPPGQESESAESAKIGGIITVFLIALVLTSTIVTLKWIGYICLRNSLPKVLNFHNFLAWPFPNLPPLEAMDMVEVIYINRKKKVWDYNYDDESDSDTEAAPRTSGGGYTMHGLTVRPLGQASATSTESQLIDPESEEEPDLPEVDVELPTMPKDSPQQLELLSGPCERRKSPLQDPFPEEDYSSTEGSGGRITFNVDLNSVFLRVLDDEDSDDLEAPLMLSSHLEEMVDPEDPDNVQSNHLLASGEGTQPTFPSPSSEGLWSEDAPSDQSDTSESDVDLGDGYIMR

T3: human IFNλ receptor on HEK-Blue IFN-λ cells (human, UniProt Q8IU57 21-520; Q08334 20-325)
T3 sequence (looked up) 1: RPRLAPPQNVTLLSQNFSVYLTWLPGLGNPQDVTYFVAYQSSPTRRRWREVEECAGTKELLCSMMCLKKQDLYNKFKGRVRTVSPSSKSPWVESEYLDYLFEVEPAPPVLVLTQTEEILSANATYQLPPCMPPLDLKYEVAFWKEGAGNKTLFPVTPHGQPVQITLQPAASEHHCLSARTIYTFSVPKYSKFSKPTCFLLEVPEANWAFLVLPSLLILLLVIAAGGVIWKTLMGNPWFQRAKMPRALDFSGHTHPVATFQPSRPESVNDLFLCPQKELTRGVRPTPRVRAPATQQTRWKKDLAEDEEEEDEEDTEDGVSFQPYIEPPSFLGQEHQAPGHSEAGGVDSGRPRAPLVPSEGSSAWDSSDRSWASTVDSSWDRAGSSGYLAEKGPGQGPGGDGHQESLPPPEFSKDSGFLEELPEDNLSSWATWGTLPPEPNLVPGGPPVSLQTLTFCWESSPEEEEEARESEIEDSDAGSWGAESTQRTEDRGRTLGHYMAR
T3 sequence (looked up) 2: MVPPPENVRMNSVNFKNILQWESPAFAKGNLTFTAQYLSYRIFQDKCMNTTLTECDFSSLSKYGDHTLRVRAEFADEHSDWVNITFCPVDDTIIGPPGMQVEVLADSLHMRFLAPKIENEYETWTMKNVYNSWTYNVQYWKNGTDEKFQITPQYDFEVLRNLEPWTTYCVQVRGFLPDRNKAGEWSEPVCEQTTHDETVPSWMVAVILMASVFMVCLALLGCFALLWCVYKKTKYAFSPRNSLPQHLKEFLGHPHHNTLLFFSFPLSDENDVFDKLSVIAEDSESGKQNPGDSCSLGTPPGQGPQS


Columns and labels:
Assay in all cases: cell-based or functional assay
[1] = biological target: T1, human IFNγ receptor on HEK-Blue IFN-γ …
[2] = biological target: T1, human IFNγ receptor on HEK-Blue IFN-γ …; remark: listed apart in the source
human CD40 = human CD40 (human, UniProt P25942 21-277)
Chain of human CD40 (P25942 21-277): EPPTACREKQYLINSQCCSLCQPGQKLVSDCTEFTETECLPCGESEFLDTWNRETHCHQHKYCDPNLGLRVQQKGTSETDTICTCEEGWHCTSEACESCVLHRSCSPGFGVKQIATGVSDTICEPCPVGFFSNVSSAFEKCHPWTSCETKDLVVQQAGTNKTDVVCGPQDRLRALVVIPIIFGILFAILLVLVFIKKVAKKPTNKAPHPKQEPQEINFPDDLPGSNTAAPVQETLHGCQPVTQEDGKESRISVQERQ

[3] = biological target: T2, human type I IFN receptor on HEK-Blue …
[4] = biological target: T3, human IFNλ receptor on HEK-Blue IFN-λ …

Row | Binder | IFNγ activity EC50, reporter in HEK-Blue IFNγ cells [1] [ng/mL] | IFNγ EC50 (ng/mL), reporter in HEK-Blue IFNγ cells [2] [ng/mL] | CD40 EC50 (ng/mL), NFκB-SEAP reporter in HEK-Blue CD40L cells (human CD40) [ng/mL] | IFNε EC50 (ng/mL), SEAP reporter in HEK-Blue hIFN-α/β cells [3] [ng/mL] | IFNλ EC50 (ng/mL), reporter in HEK-Blue IFNλ cells [4] [ng/mL]
1 | IFA43 (antibody, human IgG2, kappa) heavy: not shown light: DIQMTQSPSSVSASVGDRVTITCRASQGIYSWLAWYQQKPGKAPNLLIYTASTLQSGVPSRFSGSGSGTDFTLTISSLQPEDFATYYCQQANIFPLTFGGGTKVEIKRTVAAPSVFIFPPSDEQLKSGTASVVCLLNNFYPREAKVQWKVDNALQSGNSQESVTEQDSKDSTYSLSSTLTLSKADYEKHKVYACEVTHQGLSSPVTKSFNRGEC | < 0.01 | < 0.001 | 50.8 | – | –
2 | IFA49 (antibody, human IgG2, kappa) heavy: not shown light: DIQMTQSPSSVSASVGDRVTITCRASQGIYSWLAWYQQKPGKAPNLLIYTASTLQSGVPSRFSGSGSGTDFTLTISSLQPEDFATYYCQQANIFPLTFGGGTKVEIKRTVAAPSVFIFPPSDEQLKSGTASVVCLLNNFYPREAKVQWKVDNALQSGNSQESVTEQDSKDSTYSLSSTLTLSKADYEKHKVYACEVTHQGLSSPVTKSFNRGEC | – | – | 65.8 | 78.2 | –
3 | IFA45 (antibody, human IgG2, kappa) heavy: not shown light: DIQMTQSPSSVSASVGDRVTITCRASQGIYSWLAWYQQKPGKAPNLLIYTASTLQSGVPSRFSGSGSGTDFTLTISSLQPEDFATYYCQQANIFPLTFGGGTKVEIKRTVAAPSVFIFPPSDEQLKSGTASVVCLLNNFYPREAKVQWKVDNALQSGNSQESVTEQDSKDSTYSLSSTLTLSKADYEKHKVYACEVTHQGLSSPVTKSFNRGEC | – | – | 25.8 | – | < 0.001
4 | IFA44 (antibody, human IgG2, kappa) light: DIQMTQSPSSVSASVGDRVTITCRASQGIYSWLAWYQQKPGKAPNLLIYTASTLQSGVPSRFSGSGSGTDFTLTISSLQPEDFATYYCQQANIFPLTFGGGTKVEIKRTVAAPSVFIFPPSDEQLKSGTASVVCLLNNFYPREAKVQWKVDNALQSGNSQESVTEQDSKDSTYSLSSTLTLSKADYEKHKVYACEVTHQGLSSPVTKSFNRGECGGGGSGGGGSGGGGSGGGGSVPVARLHGALPDARGCHIAQFKSLSPQELQAFKRAKDALEESLLLKDCRCHSRLFPRTWDLRQLQVRERPMALEAELALTLKVLEATADTDPALVDVLDQPLHTLHHILSQFRACIQPQPTAGPRTRGRLHHWLYRLQEAPKKESPGCLEASVTFNLFRLLTRDLNCVASGDLCV heavy: not shown | – | – | 41.4 | – | 0.153
5 | IFA42 (antibody, human IgG2, kappa) light: DIQMTQSPSSVSASVGDRVTITCRASQGIYSWLAWYQQKPGKAPNLLIYTASTLQSGVPSRFSGSGSGTDFTLTISSLQPEDFATYYCQQANIFPLTFGGGTKVEIKRTVAAPSVFIFPPSDEQLKSGTASVVCLLNNFYPREAKVQWKVDNALQSGNSQESVTEQDSKDSTYSLSSTLTLSKADYEKHKVYACEVTHQGLSSPVTKSFNRGECGGGGSGGGGSGGGGSGGGGSQDPYVKEAENLKKYFNAGHSDVADNGTLFLGILKNWKEESDRKIMQSQIVSFYFKLFKNFKDDQSIQKSVETIKEDMNVKFFNSNKKKRDDFEKLTNYSVTDLNVQRKAIHELIQVMAELSPAAKTGKRKRSQMLFRGRRASQ heavy: not shown | – | 15.4 | 65.6 | – | –
